# B1: H183/L072 VH M34H (antibody, name in Kabat numbering, V domains shown)
# VH: QVQLVESGGGLVQPGRSLRLSCAASGFTFSNAWHHWVRQAPGKGLEWVAQIKDKGNAYAAYYAPSVKGRFTISRDDSKNSIYLQMNSLKTEDTAVYYCHYVHYASASTVLPAFGVDAWGQGTTVTVSS
# VL: DIVMTQSPLSLPVTPGEPASISCQASQELVHMNRNTYLHWYQQKPGQAPRLLIYKVSNRFPGVPDRFSGSGSGTDFTLKISRVEAEDVGVYYCAQGTSVPFTFGQGTKLEIK
# B2: H183/L072 VH M34P (antibody, name in Kabat numbering, V domains shown)
# VH: QVQLVESGGGLVQPGRSLRLSCAASGFTFSNAWPHWVRQAPGKGLEWVAQIKDKGNAYAAYYAPSVKGRFTISRDDSKNSIYLQMNSLKTEDTAVYYCHYVHYASASTVLPAFGVDAWGQGTTVTVSS
# VL: DIVMTQSPLSLPVTPGEPASISCQASQELVHMNRNTYLHWYQQKPGQAPRLLIYKVSNRFPGVPDRFSGSGSGTDFTLKISRVEAEDVGVYYCAQGTSVPFTFGQGTKLEIK
# B3: H183/L072 VH N31F (antibody, name in Kabat numbering, V domains shown)
# VH: QVQLVESGGGLVQPGRSLRLSCAASGFTFSFAWMHWVRQAPGKGLEWVAQIKDKGNAYAAYYAPSVKGRFTISRDDSKNSIYLQMNSLKTEDTAVYYCHYVHYASASTVLPAFGVDAWGQGTTVTVSS
# VL: DIVMTQSPLSLPVTPGEPASISCQASQELVHMNRNTYLHWYQQKPGQAPRLLIYKVSNRFPGVPDRFSGSGSGTDFTLKISRVEAEDVGVYYCAQGTSVPFTFGQGTKLEIK
# B4: H183/L072 VH M34V (antibody, name in Kabat numbering, V domains shown)
# VH: QVQLVESGGGLVQPGRSLRLSCAASGFTFSNAWVHWVRQAPGKGLEWVAQIKDKGNAYAAYYAPSVKGRFTISRDDSKNSIYLQMNSLKTEDTAVYYCHYVHYASASTVLPAFGVDAWGQGTTVTVSS
# VL: DIVMTQSPLSLPVTPGEPASISCQASQELVHMNRNTYLHWYQQKPGQAPRLLIYKVSNRFPGVPDRFSGSGSGTDFTLKISRVEAEDVGVYYCAQGTSVPFTFGQGTKLEIK
# B5: H183/L072 VH M34I (antibody, name in Kabat numbering, V domains shown)
# VH: QVQLVESGGGLVQPGRSLRLSCAASGFTFSNAWIHWVRQAPGKGLEWVAQIKDKGNAYAAYYAPSVKGRFTISRDDSKNSIYLQMNSLKTEDTAVYYCHYVHYASASTVLPAFGVDAWGQGTTVTVSS
# VL: DIVMTQSPLSLPVTPGEPASISCQASQELVHMNRNTYLHWYQQKPGQAPRLLIYKVSNRFPGVPDRFSGSGSGTDFTLKISRVEAEDVGVYYCAQGTSVPFTFGQGTKLEIK
# B6: H183/L072 VH M34Y (antibody, name in Kabat numbering, V domains shown)
# VH: QVQLVESGGGLVQPGRSLRLSCAASGFTFSNAWYHWVRQAPGKGLEWVAQIKDKGNAYAAYYAPSVKGRFTISRDDSKNSIYLQMNSLKTEDTAVYYCHYVHYASASTVLPAFGVDAWGQGTTVTVSS
# VL: DIVMTQSPLSLPVTPGEPASISCQASQELVHMNRNTYLHWYQQKPGQAPRLLIYKVSNRFPGVPDRFSGSGSGTDFTLKISRVEAEDVGVYYCAQGTSVPFTFGQGTKLEIK
# B7: H183/L072 VH N31A (antibody, name in Kabat numbering, V domains shown)
# VH: QVQLVESGGGLVQPGRSLRLSCAASGFTFSAAWMHWVRQAPGKGLEWVAQIKDKGNAYAAYYAPSVKGRFTISRDDSKNSIYLQMNSLKTEDTAVYYCHYVHYASASTVLPAFGVDAWGQGTTVTVSS
# VL: DIVMTQSPLSLPVTPGEPASISCQASQELVHMNRNTYLHWYQQKPGQAPRLLIYKVSNRFPGVPDRFSGSGSGTDFTLKISRVEAEDVGVYYCAQGTSVPFTFGQGTKLEIK
# B8: H183/L072 VH M34L (antibody, name in Kabat numbering, V domains shown)
# VH: QVQLVESGGGLVQPGRSLRLSCAASGFTFSNAWLHWVRQAPGKGLEWVAQIKDKGNAYAAYYAPSVKGRFTISRDDSKNSIYLQMNSLKTEDTAVYYCHYVHYASASTVLPAFGVDAWGQGTTVTVSS
# VL: DIVMTQSPLSLPVTPGEPASISCQASQELVHMNRNTYLHWYQQKPGQAPRLLIYKVSNRFPGVPDRFSGSGSGTDFTLKISRVEAEDVGVYYCAQGTSVPFTFGQGTKLEIK
# Biological target: T1, Human CD137 ECD (human)
# T1 construct: also called 4-1BB
# Experiment: single mutant vs template dBBDu183H
# T1 sequence (chain, as listed by the source limits assumed): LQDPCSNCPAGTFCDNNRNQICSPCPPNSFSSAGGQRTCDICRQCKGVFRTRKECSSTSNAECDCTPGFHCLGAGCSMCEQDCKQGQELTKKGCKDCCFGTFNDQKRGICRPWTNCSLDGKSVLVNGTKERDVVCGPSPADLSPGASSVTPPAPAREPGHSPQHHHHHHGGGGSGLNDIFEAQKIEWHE
row,Binder,fold change of affinity
1,B1,0.1 fold
2,B2,0.3 fold
3,B3,0.2 fold
4,B4,1 fold
5,B5,1.4 fold
6,B6,0 fold
7,B7,0.3 fold
8,B8,1.8 fold
